Laboratory results as given in article PMC9063849, “Crystal structure of the middle and C-terminal domains of Hsp90α labeled with a coumarin derivative reveals a potential allosteric binding site as a drug target” (Acta Crystallographica. Section D, Structural Biology, 2022).

How the values were obtained:
[1] = target: the molecule itself; test: crystal structure; MDCC-labelled Hsp90αMC crystallised in 0.1 M succinic acid pH 6.5, 12% PEG 3350, 20 mM calcium chloride; 3.5 Å; hexamer through crystallographic symmetry
[2] = target: the molecule itself; test: SEC + other: dynamic light scattering; Hsp90αC+ at 1.0 mg/ml and FL Hsp90α at 2.1 mg/ml for DLS, 20 mM HEPES pH 7.2, 150 mM NaCl, 25°C; without inhibitors
[3] = target: the molecule itself; test: dynamic light scattering; 3 mg/ml Hsp90αMC in 20 mM HEPES pH 7.2, 150 mM NaCl, 25°C; without or with 0.5 mM inhibitors (chlorobiocin, derrubone, coumermycin A1 or MDCC; 5% DMSO); dimers to hexamer
[4] = target: the molecule itself; test: SEC; size-exclusion chromatography of the purified protein, 20 mM HEPES Na pH 7.2, 150 mM NaCl

B1: MDCC–Hsp90αMC (Hsp90α 293–699 covalently linked to MDCC at Cys374) (domain or fragment)
chain: not shown
modifications: MDCC {7-diethylamino-3-[N-(2-maleimidoethyl)carbamoyl]coumarin} covalently linked to Cys374
notes: Hsp90α, human, residues 293-699 (middle and C-terminal domains), labelled with MDCC at Cys374; Three molecules in the asymmetric unit; the hexamer is formed through crystallographic symmetry; also called MDCC-labeled Hsp90αMC; source: E. coli, purified; 0.2 mM Hsp90αMC incubated with 0.5 mM MDCC on ice for 30 min, supernatant used; not shown: 6xHis, N-terminal, cleaved
stoichiometry N [1]: 6

B2: Hsp90α_433–696 (Hsp90αC+) (domain or fragment)
chain: not shown
notes: Hsp90α, human, residues 433-696; The results speak of 'the CTD'; also called the CTD; source: E. coli, purified (same procedure as for Hsp90αMC); not shown: 6xHis, N-terminal, cleaved
stoichiometry N [2]: 4

B3: Hsp90α_293–699 (Hsp90αMC), middle and C-terminal domains of human Hsp90α (domain or fragment)
chain: not shown
notes: Hsp90α (90 kDa heat-shock protein alpha), human, residues 293-699 (middle and C-terminal domains); TEV site between the tag and the protein; also called Hsp90α MD and CTD; apo Hsp90αMC; source: E. coli, purified (Ni-NTA, TEV cleavage, second Ni-NTA, size-exclusion chromatography); not shown: 6xHis, N-terminal, cleaved
stoichiometry N [3]: 6 | stoichiometry N [4]: 2

B4: Hsp90α_23–699_E47A (FL Hsp90α) (domain or fragment)
chain: not shown
notes: Hsp90α, human, residues 23-699 with E47A; N-terminal truncation (printed as Δ23) and C-terminal tail removed; also called full-length (FL) Hsp90α; source: E. coli, purified (same procedure as for Hsp90αMC); not shown: 6xHis, N-terminal, cleaved
stoichiometry N [2]: 6
